# T1: human GITR (ECD)-mFc (human, UniProt Q9Y5U5 26-162)
# T1 construct: extracellular domain; Bought (Dongda Bioscience); also called GITR-mFc; not shown: mouse Fc (mFc)
# T1 sequence (looked up): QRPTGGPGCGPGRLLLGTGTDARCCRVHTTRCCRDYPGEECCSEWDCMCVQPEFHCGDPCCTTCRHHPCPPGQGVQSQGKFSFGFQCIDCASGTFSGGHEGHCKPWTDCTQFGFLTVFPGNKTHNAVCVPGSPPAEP
# T2: human GITR on cells (293T-GITR, Jurkat-hGITR / Jurkat-GITR, Jurkat-GITR-NF-kB, 293T-GITR-NFkb-luc, primary … (human, UniProt Q9Y5U5 26-241))
# T2 construct: whole, on cells; also called TNFRSF18; CD357
# T2 sequence (looked up): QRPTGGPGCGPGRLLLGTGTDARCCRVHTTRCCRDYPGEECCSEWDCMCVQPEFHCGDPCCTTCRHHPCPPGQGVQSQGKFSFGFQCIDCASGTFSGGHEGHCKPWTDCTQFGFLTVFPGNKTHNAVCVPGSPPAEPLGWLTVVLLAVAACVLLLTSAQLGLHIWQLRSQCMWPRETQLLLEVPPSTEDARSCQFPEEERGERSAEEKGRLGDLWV
# T3: GITR-ECD-hFc (UniProt Q9Y5U5 26-162, limits assumed)
# T3 construct: extracellular domain; not shown: human Fc (hFc)
# T3 sequence (looked up): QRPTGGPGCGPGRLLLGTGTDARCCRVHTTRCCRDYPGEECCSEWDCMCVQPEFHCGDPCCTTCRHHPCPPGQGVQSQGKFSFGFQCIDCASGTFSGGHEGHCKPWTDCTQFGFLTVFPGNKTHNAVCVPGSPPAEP
# Columns and labels:
# [1] = molecular target: T1, human GITR (ECD)-mFc; assay: ELISA, plate-coated GITR-mFc
# Method: As indicated by the X axis, the concentrations of the test antibodies were 20000 ng/mL, 2000 ng/mL, 200 ng/mL, 20 ng/mL, 2 ng/mL, 0.2 ng/mL, 0.02 ng/mL, 0.002 ng/mL, 0.0002 ng/mL, and 0.00002 ng/mL.
# [2] = molecular target: T2, human GITR on cells (293T-GITR, …); assay: FACS (MFI), binding to Jurkat-GITR cells
# [3] = molecular target: T2, human GITR on cells (293T-GITR, …); assay: FACS, blocking of GITR-L (0.25 ug/mL) binding to Jurkat-GITR cells
# [4] = molecular target: T2, human GITR on cells (293T-GITR, …); assay: FACS competition on Jurkat-hGITR cells; competitor biotin-labeled human GITR ligand
# Method: FACS assay for the blocking effect of the antibodies: FACS assay was conducted by using BD C6 to determine the blocking effect of the hybridoma antibodies on the binding of biotin-labeled human GITR ligands to Jurkat-hGITR cells. Jurkat-hGITR cells were suspended in FACS buffer (PBS containing 3% FBS). Diluted hybridoma antibodies were added into the cell suspension and the mixture was incubated in a 96-well plate for 1 hour at 4° C. […] After incubation, the 96-well plate was washed 3 times, and mouse anti-biotin PE antibodies (Biolgend, Cat No: 409004) were added and incubated at 4° C. for 0.5 hours. The cells in the 96-well plate were washed 3 times and finally analyzed with BD C6.
# [5] = molecular target: T3, GITR-ECD-hFc; assay: ELISA, plate-coated GITR-ECD-hFc
# Method: ELISA assay: a 96-well ELISA plate (Corning, Cat No: 9018) was inoculated with GITR-ECD-hFc, left standing overnight at 4° C., and washed 3 times with washing buffer (PBS+0.05% Tween 20), then blocking buffer (PBS+1% BSA (Sigma, Cat No: V90093)) was added, and the 96-well ELISA plate was incubated for 1 hour and washed 3 times; hybridoma supernatant was added, the 96-well ELISA plate was incubated for 1 hour and washed 3 times, 100 µL of goat anti-mouse IgG secondary antibodies (Thermo, Cat No: 31432) diluted at a ratio of 1:10000 was added into each well, and the 96-well ELISA plate was incubated at room temperature for 1 hour and washed 3 times. 100 µL of TMB (Biosubstrate Technologies, Cat No: ES-002) was added into each well and left standing for 3 minutes for color development, then a stop solution (2N H₂SO₄) was added at a dose of 100 µL/well to terminate the reaction, and OD450×signal of each sample was measured with a Tecan Spark microplate reader.
EC50 (read off the curve) [1],EC50 [2],IC50 [3],IC50 [4],EC50 [5],Binder
~0.02 µg/mL,0.112 µg/mL,0.101 µg/mL,–,–,"3F5 (humanized) -hIgG1 (antibody, V domains shown, also called h3F5-hIgG1; h3F5-IgG1) VH: QVQLVQSGAEVKKPGASVKVSCKASGYTFTDHYMHWVRQAPGQGLEWIGDINPNSGGTINNQNFKGRATLTVDKSISTAYMELSRLRSDDTAVYYCARGFSGLAYWGQGTLVTVSS VL: DIVMTQTPLSSPVTLGQPASISCKSSQSLLDRDGKTYLNWLQQRPGQPPRRLIYLVSILDSGVPDRFSGSGAGTDFTLKISRVEAEDVGVYYCWQGTHFPWTFGQGTKLEIKR"
–,–,–,0.0413 µg/mL,–,"9B3 (murine) (antibody, V domains shown, Mouse hybridoma monoclonal antibody) VH: QVQLQQSGAELMNLGASVKISCKATGYPVSRYWIEWLKQRPGHGPEWIGEILPGSDYANYNEKFKGKATFTADISSNSAYMQLSSLTSEDSAVYYCSRKGAYYALDFWGQGTSVTVSS VL: DIVMTQSPATLSVTPGERVSLSCRASQSVNNYLHWYQQKSHESPRLLISYVSQSISGISSRFSGSGSGTDFTLIIHSVETEDFGMYFCQQSNRWPLTFGAGTKLELK"
~0.06 µg/mL,0.0895 µg/mL,0.169 µg/mL,–,–,"h4E4-hIgG1 (antibody, V domains shown, Humanized 4E4, human IgG1; also called 4E4 (humanized); h4E4-IgG1) VH: QVQLVQSGAEVKKPGASVKVSCKASGYTFTDHYMNWVRQAPGQGLEWIGDIDPKNGGTLYNQNFKGRATLTVDKSISTAYMELSRLRSDDTAVYYCARREAMDYWGQGTLVTVSS VL: DVVMTQSPLSLPVTPGEPASISCRSSQSIVYSNGNTYLNWYLQKPGQSPQLLIYKVSNRFSGVPDRFSGSGSGTDFTLKISRVEAEDVGVYYCFQGSHVPWTFGGGTKVEIKR"
–,–,–,–,0.0017 µg/mL,"4E4 (murine) (antibody, V domains shown, Mouse hybridoma monoclonal antibody) VH: EVQLQQSGPELVKPGASVKISCKASGYTFTDHYMNWVKQSHGKSLEWIGDIDPKNGGTLYNQNFKGRATLTVDKSSSTAYMDLRSLTSEDSAVYYCARREAMDYWGQGTSVTVSS VL: DVLMTQIPLSLPVSFGDQASISCRSSQSIVYSNGNTYLNWYLQKPGQSPKLLIYKVSNRFSGVPDRFSGSGSGTDFTLKISRVEAEDLGVYYCFQGSHVPWTFGGGTKLEIKR"
–,–,–,4 µg/mL,0.0103 µg/mL,"13G12 (murine) (antibody, V domains shown, Mouse hybridoma monoclonal antibody) VH: QVQLQQPGTELVKPGASVKLSCKASGYTFTSNWMNWVKQRPGHGLEWIGNIYPSNGGTNYNEKFKSKATLTVDKSSSTAYMQLRGLTSEDSAVYYCVRHSNYVGAMDYWGQGTSVTVSS VL: QIVLTQSPAIMSASPGEKVTMTCGASSSVSYMYWFQQKPGSSPRLLIYDTFNLASGVPVRFSGSESGTSYSLTISRMEAEDAATYYCQHWSSYPPTFGSGTKLEIDR"
~0.005 µg/mL,0.132 µg/mL,0.284 µg/mL,–,–,"h4B11-hIgG1 (antibody, V domains shown, Humanized 4B11, human IgG1; also called 4B11 (humanized); h4B11-IgG1) VH: EVQLVQSGAEVKKPGASVKVSCKASGFTFTDSVLHWVRQAPGQRLEWIGYIHPYNDDTKFHDSFKGRATLTSDKSASTAYMELSSLRSEDTAVYYCSRNDELRVALDYWGQGTLVTVSS VL: EIVLTQSPATLSLSPGERATLSCRASQSVSTSTYSYVHWYQQKPGQAPRLLIKYASNLESGIPARFSGSGSGTDFTLTISSLEPEDFAVYYCQHSWGNPWTFGGGTKVEIKR"
~0.006 µg/mL,0.102 µg/mL,0.151 µg/mL,–,–,"10E11VH(G24A/A67V)-hIgG1(3A) (antibody, Humanized 10E11 (AV), human IgG1 with the 3A Fc variant; also called 10E11VH(AV)-hIgG1(3A); h10E11(AV)-hIgG1(3A)) heavy: EVQLVQSGAEVKKPGESLRISCKASGYPVSRYWIEWVRQMPGKGLEWIGEILPGSDYANYNEKFKGHVTFSADISISTAYLQWSSLKASDTAMYYCSRKGAYYALDFWGQGTLVTVSSASTKGPSVFPLAPSSKSTSGGTAALGCLVKDYFPEPVTVSWNSGALTSGVHTFPAVLQSSGLYSLSSVVTVPSSSLGTQTYICNVNHKPSNTKVDKKVEPKSCDKTHTCPPCPAPELLGGPSVFLFPPKPKDTLMISRTPEVTCVVVDVSHEDPEVKFNWYVDGVEVHNAKTKPREEQYNATYRVVSVLTVLHQDWLNGKEYKCKVSNKALPAPIAATISKAKGQPREPQVYTLPPSRDELTKNQVSLTCLVKGFYPSDIAVEWESNGQPENNYKTTPPVLDSDGSFFLYSKLTVDKSRWQQGNVFSCSVMHEALHNHYTQKSLSLSPG light: not shown"

# Source: patent US20230295323A1 (DONGDA BIOSCIENCE INC SUZHOU, published 2023)
